The values below are quoted from earlier work in article PMC7290323.

The target of the data set is GPP130 luminal domain (Homo sapiens) (UniProt O00461).
Sequence of UniProt O00461 (O00461 34-696): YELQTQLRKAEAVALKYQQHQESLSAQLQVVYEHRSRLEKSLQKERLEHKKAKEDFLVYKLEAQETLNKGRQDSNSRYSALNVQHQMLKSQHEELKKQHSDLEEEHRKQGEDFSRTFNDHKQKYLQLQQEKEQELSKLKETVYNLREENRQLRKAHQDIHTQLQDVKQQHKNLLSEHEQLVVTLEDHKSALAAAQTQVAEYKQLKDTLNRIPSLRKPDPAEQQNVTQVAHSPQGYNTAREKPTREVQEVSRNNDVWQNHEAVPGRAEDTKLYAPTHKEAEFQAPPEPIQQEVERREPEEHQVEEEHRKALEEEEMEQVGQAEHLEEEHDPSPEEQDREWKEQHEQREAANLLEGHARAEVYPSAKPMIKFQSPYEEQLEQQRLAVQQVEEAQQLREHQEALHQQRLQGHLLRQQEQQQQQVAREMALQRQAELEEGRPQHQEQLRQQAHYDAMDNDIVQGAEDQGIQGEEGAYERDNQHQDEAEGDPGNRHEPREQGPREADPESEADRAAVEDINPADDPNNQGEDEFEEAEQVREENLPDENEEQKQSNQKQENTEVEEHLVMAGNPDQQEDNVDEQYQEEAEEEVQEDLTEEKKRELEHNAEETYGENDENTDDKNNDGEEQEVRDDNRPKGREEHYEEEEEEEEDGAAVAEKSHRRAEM

Consider “Shiga toxin 1 B subunit (STxB/STx1B) (from UniProt Q32GM0)”, for which the Kd was 150 nM.

The term Kd denotes the equilibrium constant for the complex coming apart.
